Measured values as given in paper PMC2938385 (Molecular Biology of the Cell, 2010).

Legend:
[1] = biological target: T1, mDia2N (mDia2 residues 150-533) (UniProt Q9Z207 150-533); experiment: SPR
T1 sequence (looked up): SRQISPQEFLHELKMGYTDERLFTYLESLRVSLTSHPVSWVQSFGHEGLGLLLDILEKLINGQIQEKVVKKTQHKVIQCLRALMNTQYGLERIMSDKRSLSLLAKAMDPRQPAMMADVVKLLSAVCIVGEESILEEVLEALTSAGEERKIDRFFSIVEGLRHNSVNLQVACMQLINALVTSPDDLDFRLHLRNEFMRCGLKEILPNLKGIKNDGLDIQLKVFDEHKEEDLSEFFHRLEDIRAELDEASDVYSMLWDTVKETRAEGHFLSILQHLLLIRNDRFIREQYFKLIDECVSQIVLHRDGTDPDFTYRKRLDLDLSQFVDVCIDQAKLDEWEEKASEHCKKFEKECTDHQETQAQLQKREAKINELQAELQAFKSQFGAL

[2] = biological target: T2, mDia3N (mDia3 residues 166-542) (UniProt O70566 166-542); experiment: SPR
T2 sequence (looked up): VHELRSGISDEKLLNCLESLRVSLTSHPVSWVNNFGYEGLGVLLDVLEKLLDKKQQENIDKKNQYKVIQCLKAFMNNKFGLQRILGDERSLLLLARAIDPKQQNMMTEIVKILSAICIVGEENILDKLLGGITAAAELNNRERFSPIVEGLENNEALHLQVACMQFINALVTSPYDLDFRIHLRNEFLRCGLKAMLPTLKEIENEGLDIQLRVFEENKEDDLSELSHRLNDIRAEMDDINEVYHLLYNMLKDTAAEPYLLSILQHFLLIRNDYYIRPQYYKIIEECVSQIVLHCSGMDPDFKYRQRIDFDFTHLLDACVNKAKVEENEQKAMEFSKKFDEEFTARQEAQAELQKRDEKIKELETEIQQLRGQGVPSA

- Kd [1]: 0.236 µM
- Kd [2]: 1.02 µM
B1: GST-anillin (1-91) (domain or fragment, human, UniProt Q9NQW6-2 1-91, looked up)
chain: MDPFTEKLLERTRARRENLQRKMAERPTAAPRSMTHAKRARQPLSEASNQQPLSGGEEKSCTKPSPSKKRCSDNTEVEVSNLENKQPVEST
